# Reference: patent US20240269176A1 (Hoffmann-La Roche, published 2024)
# Where two headings read alike, the source gives them in different places.
# How the values were obtained:
# [1] = biological target: VH3VL1-CD8ATD-CD137CSD-CD3zSSD fusion; test: cell-based or functional assay
# [2] = biological target: VH1VL1-CD8ATD-CD137CSD-CD3zSSD fusion; test: cell-based or functional assay
# [3] = biological target: VL1VH3-CD8ATD-CD137CSD-CD3zSSD fusion; test: cell-based or functional assay
# [4] = biological target: VH2VL1-CD8ATD-CD137CSD-CD3zSSD fusion; test: cell-based or functional assay
# murinPG-Fab-CAR = test: cell-based or functional assay
# [5] = biological target: T1, VH3VL1-CD8ATD-CD137CSD-CD3zSSD fusion; test: NFAT-luciferase reporter assay, anti-P329G CAR Jurkat cells with WSUDLCL2 (CD20+) target cells
# T1 construct: Chimeric antigen receptor with humanized anti-P329G scFv (VH-linker-VL), expressed on Jurkat NFAT reporter T cells; expression construct carried a T2A-GFP reporter
# Description: (§1) Binding of the CAR to an immobilized adapter molecule (e.g. a tumor antigen bound adapter molecule) leads to CAR crosslinking resulting in T cell activation and in the expression of luciferase. […] The 384 well plate was centrifuged for 1 min at 300 g and RT and incubated at 37° C. and 5% CO₂ in a humidity atmosphere. After 7 h incubation 20% of the final volume of ONE-Glo™ Luciferase Assay (E6120, Promega) was added, and plates were centrifuged for 1 min at 350×g. Afterwards, the relative luminescence units (RLU) per s/well were measured immediately using a Tecan microplate reader. Concentration-response curves were fitted and EC₅₀ values were calculated using GraphPadPrism version 7. As p value the New England Journal of Medicine style was used as listed in GraphPadPrism 7. Meaning *=P≤0,033; **=P≤0,002; ***=P≤0,001.
# [6] = biological target: T2, VH1VL1-CD8ATD-CD137CSD-CD3zSSD fusion; test: as above
# T2 construct: Chimeric antigen receptor on Jurkat NFAT reporter T cells; also called VH1VL1 P329G-CAR
# Description: as §1
# [7] = biological target: T3, VL1VH3-CD8ATD-CD137CSD-CD3zSSD fusion; test: as above
# T3 construct: Chimeric antigen receptor with scFv in VL-linker-VH orientation on Jurkat NFAT reporter T cells; the entry may be incomplete
# Description: as §1
# [8] = biological target: T4, VH2VL1-CD8ATD-CD137CSD-CD3zSSD fusion; test: as above
# T4 construct: Chimeric antigen receptor on Jurkat NFAT reporter T cells; also called VH2VL1 P329G-CAR
# Description: as §1
# [9] = biological target: T1, VH3VL1-CD8ATD-CD137CSD-CD3zSSD fusion; test: cell-based or functional assay; remark: listed apart in the source
# [10] = biological target: T2, VH1VL1-CD8ATD-CD137CSD-CD3zSSD fusion; test: cell-based or functional assay; remark: listed apart in the source
# [11] = biological target: T3, VL1VH3-CD8ATD-CD137CSD-CD3zSSD fusion; test: cell-based or functional assay; remark: listed apart in the source
# [12] = biological target: T2, VH1VL1-CD8ATD-CD137CSD-CD3zSSD fusion; test: cell-based or functional assay; remark: listed apart in the source
# [13] = biological target: T3, VL1VH3-CD8ATD-CD137CSD-CD3zSSD fusion; test: cell-based or functional assay; remark: listed apart in the source
# [14] = biological target: T1, VH3VL1-CD8ATD-CD137CSD-CD3zSSD fusion; test: NFAT-luciferase reporter assay, anti-P329G CAR Jurkat cells with WSUDLCL2 (CD20+) target cells; remark: listed apart in the source
# Description: as §1
# [15] = biological target: T2, VH1VL1-CD8ATD-CD137CSD-CD3zSSD fusion; test: as above; remark: listed apart in the source
# Description: as §1
# [16] = biological target: T3, VL1VH3-CD8ATD-CD137CSD-CD3zSSD fusion; test: as above; remark: listed apart in the source
# Description: as §1
# [17] = biological target: T4, VH2VL1-CD8ATD-CD137CSD-CD3zSSD fusion; test: as above; remark: listed apart in the source
# Description: as §1
# T1 sequence (chain, as listed by the source): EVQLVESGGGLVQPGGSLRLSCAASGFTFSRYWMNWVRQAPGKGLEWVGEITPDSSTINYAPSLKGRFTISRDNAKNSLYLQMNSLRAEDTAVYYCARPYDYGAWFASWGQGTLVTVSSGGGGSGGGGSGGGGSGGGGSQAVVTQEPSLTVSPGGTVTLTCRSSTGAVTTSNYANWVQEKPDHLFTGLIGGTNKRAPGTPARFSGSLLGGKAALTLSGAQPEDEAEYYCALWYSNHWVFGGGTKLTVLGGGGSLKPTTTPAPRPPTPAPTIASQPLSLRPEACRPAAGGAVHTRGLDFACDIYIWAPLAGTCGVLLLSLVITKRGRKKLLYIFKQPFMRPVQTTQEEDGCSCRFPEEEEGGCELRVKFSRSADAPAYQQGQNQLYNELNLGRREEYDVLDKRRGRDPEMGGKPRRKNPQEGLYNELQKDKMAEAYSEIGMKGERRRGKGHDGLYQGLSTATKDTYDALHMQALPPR
# T4 sequence (chain, as listed by the source): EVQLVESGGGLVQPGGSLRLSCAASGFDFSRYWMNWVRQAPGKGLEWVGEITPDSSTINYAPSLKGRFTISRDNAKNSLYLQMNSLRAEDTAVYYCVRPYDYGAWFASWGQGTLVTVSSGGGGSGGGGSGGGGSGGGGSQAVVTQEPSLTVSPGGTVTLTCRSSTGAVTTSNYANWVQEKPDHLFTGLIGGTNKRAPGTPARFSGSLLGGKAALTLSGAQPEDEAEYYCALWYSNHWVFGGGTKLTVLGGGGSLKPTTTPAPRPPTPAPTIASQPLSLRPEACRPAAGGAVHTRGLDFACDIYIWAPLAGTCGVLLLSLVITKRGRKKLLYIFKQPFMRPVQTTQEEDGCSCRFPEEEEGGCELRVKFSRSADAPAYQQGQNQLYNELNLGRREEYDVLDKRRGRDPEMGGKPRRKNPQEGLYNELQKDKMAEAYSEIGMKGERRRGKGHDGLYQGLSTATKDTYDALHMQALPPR
# T2 sequence (chain, as listed by the source): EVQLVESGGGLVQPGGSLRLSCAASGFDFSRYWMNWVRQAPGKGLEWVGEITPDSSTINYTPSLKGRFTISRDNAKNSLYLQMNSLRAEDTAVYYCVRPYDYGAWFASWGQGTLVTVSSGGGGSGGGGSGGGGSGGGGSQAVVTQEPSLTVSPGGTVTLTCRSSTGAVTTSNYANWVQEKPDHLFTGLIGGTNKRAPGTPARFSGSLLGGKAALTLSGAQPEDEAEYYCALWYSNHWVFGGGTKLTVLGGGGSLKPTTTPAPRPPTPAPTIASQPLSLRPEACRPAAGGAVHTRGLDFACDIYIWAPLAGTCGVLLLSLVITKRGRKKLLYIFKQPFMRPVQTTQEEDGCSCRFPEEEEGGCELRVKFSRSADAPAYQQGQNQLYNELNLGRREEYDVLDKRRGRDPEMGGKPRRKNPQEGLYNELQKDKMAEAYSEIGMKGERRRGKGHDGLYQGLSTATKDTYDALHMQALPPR
# T3 sequence (chain, as listed by the source): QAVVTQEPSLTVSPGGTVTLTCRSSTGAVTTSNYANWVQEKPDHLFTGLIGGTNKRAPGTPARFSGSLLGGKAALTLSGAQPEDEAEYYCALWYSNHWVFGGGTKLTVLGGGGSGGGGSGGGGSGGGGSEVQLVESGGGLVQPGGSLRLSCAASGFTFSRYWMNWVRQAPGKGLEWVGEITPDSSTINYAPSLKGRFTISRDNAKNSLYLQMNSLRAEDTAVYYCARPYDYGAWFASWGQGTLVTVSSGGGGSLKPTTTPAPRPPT
binder,measurement,setting,value
anti-CD20 (GA101) P329G LALA IgG1 (antibody) heavy: not shown light: DIVMTQTPLSLPVTPGEPASISCRSSKSLLHSNGITYLYWYLQKPGQSPQLLIYQMSNLVSGVPDRFSGSGSGTDFTLKISRVEAEDVGVYYCAQNLELPYTFGGGTKVEIKRTVAAPSVFIFPPSDEQLKSGTASVVCLLNNFYPREAKVQWKVDNALQSGNSQESVTEQDSKDSTYSLSSTLTLSKADYEKHKVYACEVTHQGLSSPVTKSFNRGEC,"EC50 of NFAT-luciferase activation of anti-P329G CAR Jurkat cells, WSUDLCL2 target cells (5:1); VH3 x VL1",[1],7.57 pM
same,"EC50 of NFAT-luciferase activation of anti-P329G CAR Jurkat cells, WSUDLCL2 target cells (5:1); VH1 x VL1",[2],8.1 pM
same,"EC50 of NFAT-luciferase activation of anti-P329G CAR Jurkat cells, WSUDLCL2 target cells (5:1); VL1 x VH 3",[3],~6.58 pM
same,"EC50 of NFAT-luciferase activation of anti-P329G CAR Jurkat cells, WSUDLCL2 target cells (5:1); table row VH2 x VL1",[4],~6.93 pM
"anti-CD20 (GA101) heterodimeric IgG1 (antibody, defucosylated) heavy 1: QVQLVQSGAEVKKPGSSVKVSCKASGYAFSYSWINWVRQAPGQGLEWMGRIFPGDGDTDYNGKFKGRVTITADKSTSTAYMELSSLRSEDTAVYYCARNVFDGYWLVYWGQGTLVTVSSASTKGPSVFPLAPSSKSTSGGTAALGCLVKDYFPEPVTVSWNSGALTSGVHTFPAVLQSSGLYSLSSVVTVPSSSLGTQTYICNVNHKPSNTKVDKKVEPKSCDKTHTCPPCPAPELLGGPSVFLFPPKPKDTLMISRTPEVTCVVVDVSHEDPEVKFNWYVDGVEVHNAKTKPREEQYNSTYRVVSVLTVLHQDWLNGKEYKCKVSNKALGAPIEKTISKAKGQPREPQVYTLPPCRDELTKNQVSLWCLVKGFYPSDIAVEWESNGQPENNYKTTPPVLDSDGSFFLYSKLTVDKSRWQQGNVFSCSVMHEALHNHYTQKSLSLSP heavy 2: QVQLVQSGAEVKKPGSSVKVSCKASGYAFSYSWINWVRQAPGQGLEWMGRIFPGDGDTDYNGKFKGRVTITADKSTSTAYMELSSLRSEDTAVYYCARNVFDGYWLVYWGQGTLVTVSSASTKGPSVFPLAPSSKSTSGGTAALGCLVKDYFPEPVTVSWNSGALTSGVHTFPAVLQSSGLYSLSSVVTVPSSSLGTQTYICNVNHKPSNTKVDKKVEPKSCDKTHTCPPCPAPELLGGPSVFLFPPKPKDTLMISRTPEVTCVVVDVSHEDPEVKFNWYVDGVEVHNAKTKPREEQYNSTYRVVSVLTVLHQDWLNGKEYKCKVSNKALPAPIEKTISKAKGQPREPQVCTLPPSRDEL light: DIVMTQTPLSLPVTPGEPASISCRSSKSLLHSNGITYLYWYLQKPGQSPQLLIYQMSNLVSGVPDRFSGSGSGTDFTLKISRVEAEDVGVYYCAQNLELPYTFGGGTKVEIKRTVAAPSVFIFPPSDEQLKSGTASVVCLLNNFYPREAKVQWKVDNALQSGNSQESVTEQDSKDSTYSLSSTLTLSKADYEKHKVYACEVTHQGLSSPVTKSFNRGEC","EC50 (read off the curve); NFAT-luciferase, anti-P329G CAR Jurkat reporter cells (panel title murinPG-Fab-CAR activation) with WSUDLCL2 CD20+ target cells",murinPG-Fab-CAR,~20 pM
"anti-CD20 (GA101) wild type IgG1 (antibody, also called WT GA101) heavy: not shown light: DIVMTQTPLSLPVTPGEPASISCRSSKSLLHSNGITYLYWYLQKPGQSPQLLIYQMSNLVSGVPDRFSGSGSGTDFTLKISRVEAEDVGVYYCAQNLELPYTFGGGTKVEIKRTVAAPSVFIFPPSDEQLKSGTASVVCLLNNFYPREAKVQWKVDNALQSGNSQESVTEQDSKDSTYSLSSTLTLSKADYEKHKVYACEVTHQGLSSPVTKSFNRGEC",binding result,[5],no binding (tested: just below 10^2 nM (67 nM per paragraph 404))
same,binding result,[6],no binding (tested: just below 10^2 nM (67 nM per paragraph 404))
same,binding result,[7],no binding (tested: just below 10^2 nM (67 nM per paragraph 404))
same,binding result,[8],no binding (tested: just below 10^2 nM (67 nM per paragraph 404))
same,"EC50 of NFAT-luciferase activation of anti-P329G CAR Jurkat cells, WSUDLCL2 target cells (5:1); curve flat at 50-150 RLU/s, fit without meaning; VH3 x VL1",[9],~85 pM
same,"EC50 of NFAT-luciferase activation of anti-P329G CAR Jurkat cells, WSUDLCL2 target cells (5:1); curve flat at 50-150 RLU/s, fit without meaning; VH1 x VL1",[10],~2.19 pM
same,"EC50 of NFAT-luciferase activation of anti-P329G CAR Jurkat cells, WSUDLCL2 target cells (5:1); curve flat at 50-150 RLU/s, fit without meaning; VL1 x VH 3",[11],~78.3 pM
anti-CD20 (GA101) LALA IgG1 (antibody) heavy: not shown light: DIVMTQTPLSLPVTPGEPASISCRSSKSLLHSNGITYLYWYLQKPGQSPQLLIYQMSNLVSGVPDRFSGSGSGTDFTLKISRVEAEDVGVYYCAQNLELPYTFGGGTKVEIKRTVAAPSVFIFPPSDEQLKSGTASVVCLLNNFYPREAKVQWKVDNALQSGNSQESVTEQDSKDSTYSLSSTLTLSKADYEKHKVYACEVTHQGLSSPVTKSFNRGEC,"EC50 of NFAT-luciferase activation of anti-P329G CAR Jurkat cells, WSUDLCL2 target cells (5:1); curve flat at 60-150 RLU/s, fit without meaning; VH1 x VL1",[12],~0.0485 pM
same,"EC50 of NFAT-luciferase activation of anti-P329G CAR Jurkat cells, WSUDLCL2 target cells (5:1); curve flat at 60-150 RLU/s, fit without meaning; VL1 x VH 3",[13],~0.000234 pM
same,binding result,[14],no binding (tested: just below 10^2 nM (67 nM per paragraph 404))
same,binding result,[15],no binding (tested: just below 10^2 nM (67 nM per paragraph 404))
same,binding result,[16],no binding (tested: just below 10^2 nM (67 nM per paragraph 404))
same,binding result,[17],no binding (tested: just below 10^2 nM (67 nM per paragraph 404))
